Data reported in patent CN115785274A (DONGGUAN PENGZHI BIOTECHNOLOGY CO LTD, dated 2023).

Biological target: T1, PG I蛋白(fitzgerald，30R-AP038) (UniProt P0DJD8 16-388)
T1 construct: Bought antigen; Pepsinogen I is a group of isozymogens (human genes PGA3, PGA4, PGA5); also called 胃蛋白酶原I; HPG I
Assay: BLI, antibody captured on AMC sensor, PG I protein in a dilution series in PBST

T1 sequence (P0DJD8 16-388): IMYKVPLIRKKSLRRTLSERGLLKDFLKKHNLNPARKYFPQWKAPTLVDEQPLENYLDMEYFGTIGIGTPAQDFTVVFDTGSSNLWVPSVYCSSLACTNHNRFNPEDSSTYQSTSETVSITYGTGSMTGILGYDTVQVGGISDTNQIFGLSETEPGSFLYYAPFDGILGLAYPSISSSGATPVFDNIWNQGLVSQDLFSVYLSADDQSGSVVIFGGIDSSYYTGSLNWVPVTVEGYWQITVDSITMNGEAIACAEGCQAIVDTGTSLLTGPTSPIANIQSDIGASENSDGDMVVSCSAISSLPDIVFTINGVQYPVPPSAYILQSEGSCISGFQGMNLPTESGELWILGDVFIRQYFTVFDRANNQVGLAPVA

Kd [nM]	koff [s⁻¹]	kon [M⁻¹ s⁻¹]	Molecule
0.271	0.000529	1.95e+06	对照抗体 (antibody)
0.0275	0.000536	1.95e+07	Anti-HPG I 13A5单克隆抗体 (antibody, V domains shown) VH: QVQLQQSGPELVRPGVSVKISCKGSGYTFTDHPMHWVKQSHAKSLEWIGVISTFSGHRNYNQKFKGKATMTVDKSSTTAYMELDRLTSEDSAIYYCARGDKSIYYGSYLSWGQGTLITVSA VL: QIVLTQSPAIMSASPGEKVTMTCSASSSVSYMYWYQQKSGTSPKRWIYDTSKLTSGVPARFSGSGSGTSYSLTISSMETEDAATYFCQQWSSSPLTFGAGTKLELK
